Assay results taken from publication PMC7566471, “A new perspective on the interaction between the Vg/VGLL1-3 proteins and the TEAD transcription factors” (Scientific Reports, 2020).
Where a chain is given by its changes, count along the chain named. Like-named read-outs stand apart in the source and are kept apart here. Each block holds one molecule with its values, some of them ahead of it.

Experiments:
[1] = target: wt^Sd (Scalloped 223–440), N-biotinylated-Avitagged (Drosophila melanogaster) (UniProt P30052); assay: SPR; N-biotinylated-Avitagged Sd (wild type or mutant) immobilised on sensor chips; Yki or Vg fragment as analyte; Kd at equilibrium by a standard SPR method
[2] = target: N-terminally V5-tagged Asp272Ala^TEAD4 (full length) (human) (UniProt Q15561); assay: co-IP; V5-TEAD4 and (FLAG)3-VGLL2 co-transfected into HEK293FT YAP/TAZ double knockout cells; V5 immunoprecipitation, anti-FLAG Western blot; similar results in wild-type HEK293FT cells
Chain of N-terminally V5-tagged Asp272Ala^TEAD4 (full length) (human) (Q15561 whole entry D272A): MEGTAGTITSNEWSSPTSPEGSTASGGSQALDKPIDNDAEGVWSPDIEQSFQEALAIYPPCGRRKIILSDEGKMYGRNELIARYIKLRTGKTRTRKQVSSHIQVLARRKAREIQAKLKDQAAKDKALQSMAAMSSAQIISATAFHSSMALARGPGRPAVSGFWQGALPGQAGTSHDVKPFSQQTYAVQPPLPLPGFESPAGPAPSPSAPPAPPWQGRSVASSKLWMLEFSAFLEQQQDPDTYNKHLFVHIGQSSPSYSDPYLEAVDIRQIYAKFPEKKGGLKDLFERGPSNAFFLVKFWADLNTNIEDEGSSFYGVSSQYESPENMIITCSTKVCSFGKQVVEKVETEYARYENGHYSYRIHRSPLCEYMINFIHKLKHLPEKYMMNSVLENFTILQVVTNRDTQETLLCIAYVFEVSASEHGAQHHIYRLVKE

[3] = target: TEAD4 (protein of the SPR and TR-FRET assays) (human); assay: FRET or BRET; TR-FRET assay with TEAD4; potency (IC50) of peptides; methodology in Fig. S8
[4] = target: TEAD4 (protein of the SPR and TR-FRET assays) (human); assay: SPR; peptides against TEAD4; Kd at equilibrium; peptide stocks in DMSO or in acetonitrile:(water + 1 mM TCEP)
[5] = target: TEAD4 (Homo sapiens) (UniProt Q15561); conditions: cited from earlier work
Chain of TEAD4 (Homo sapiens) (Q15561 whole entry): as the sequence (Q15561 whole entry D272A) above, with A272D counted along it

[6] = target: T1, wt^Sd (Scalloped 223–440), N-biotinylated-Avitagged (Drosophila melanogaster, UniProt P30052 223-440, biotin on the Avi-tag; acylated (incubated with myristoyl coenzyme A; purified as a mixture of acylated and non-acylated proteins)); assay: SPR; N-biotinylated-Avitagged Sd (wild type or mutant) immobilised on sensor chips; Kd by kinetic titration (Kd^KT); conditions: both partners purified
T1 construct: Immobilised on SPR sensor chips by the biotinylated Avi-tag; also called Sd^223–440; source: E. coli BL21(DE3) with a BirA plasmid, purified (HisTrap, HRV 3C cleavage, Superdex 75); not shown: His6, N-terminal, cleaved; Avi-tag, N-terminal, kept
T1 sequence (looked up): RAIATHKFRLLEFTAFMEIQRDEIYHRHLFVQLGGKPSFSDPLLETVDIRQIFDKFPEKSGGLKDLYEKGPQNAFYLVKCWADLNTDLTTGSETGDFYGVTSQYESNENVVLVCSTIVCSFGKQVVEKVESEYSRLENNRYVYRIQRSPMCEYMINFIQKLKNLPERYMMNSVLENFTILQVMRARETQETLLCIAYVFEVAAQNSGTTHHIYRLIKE

[7] = target: TEAD4 (protein of the SPR and TR-FRET assays) (human); assay: SPR; peptides against TEAD4; Kd at equilibrium; peptide stocks in DMSO or in acetonitrile:(water + 1 mM TCEP); remark: listed apart in the source
[8] = target: T1, wt^Sd (Scalloped 223–440), …; assay: SPR; N-biotinylated-Avitagged Sd (wild type or mutant) immobilised on sensor chips; Yki or Vg fragment as analyte; Kd at equilibrium by a standard SPR method; conditions: both partners purified
[9] = target: T2, Asp276Ala^Sd (Scalloped 223–440), biotinylated Avi-tagged (Drosophila melanogaster, UniProt P30052 223-440, Asp276Ala, biotin on the Avi-tag; incubated with myristoyl coenzyme A); assay: SPR; N-biotinylated-Avitagged Sd (wild type or mutant) immobilised on sensor chips; Kd by kinetic titration (Kd^KT); conditions: both partners purified
T2 construct: Scalloped (Sd), Drosophila melanogaster, UniProt P30052, amino acids 223–440, with Asp276Ala; also called Asp246Ala^Sd (as printed in two sentences); source: E. coli BL21(DE3) with a BirA plasmid, purified (HisTrap, HRV 3C cleavage, Superdex 75); not shown: His6, N-terminal, cleaved; Avi-tag, N-terminal, kept
T2 sequence (looked up): T1 sequence (looked up) with D54A

[10] = target: T3, Tyr435His^Sd (Scalloped 223–440), biotinylated Avi-tagged (Drosophila melanogaster, UniProt P30052 223-440, Tyr435His, biotin on the Avi-tag; incubated with myristoyl coenzyme A); assay: as above; conditions: both partners purified
T3 construct: Scalloped (Sd), Drosophila melanogaster, UniProt P30052, amino acids 223–440, with Tyr435His; source: E. coli BL21(DE3) with a BirA plasmid, purified (HisTrap, HRV 3C cleavage, Superdex 75); not shown: His6, N-terminal, cleaved; Avi-tag, N-terminal, kept
T3 sequence (looked up): T1 sequence (looked up) with Y213H

[11] = target: T2, Asp276Ala^Sd (Scalloped 223–440), …; assay: SPR; N-biotinylated-Avitagged Sd (wild type or mutant) immobilised on sensor chips; Yki or Vg fragment as analyte; Kd at equilibrium by a standard SPR method; conditions: both partners purified
[12] = target: T3, Tyr435His^Sd (Scalloped 223–440), …; assay: as above; conditions: both partners purified

Molecule: Vg^298–337 (from UniProt Q26366 298-337) (peptide)
- Kd [1]: 61 nM

Molecule: (FLAG)3-delΩ^VGLL2 (full length with the Ω-loop deleted) (from UniProt Q8N8G2-1 1-317) (natural protein)
- fold reduction of co-immunoprecipitation against wt^TEAD4 with wt^VGLL2 [2]: 2 fold

Molecule: YAP^85–99 (from UniProt P46937 85-99) (peptide)
- IC50 [3]: 98000 nM
- Kd [4]: 58000 nM

Molecule: Flyman (hybrid peptide: β-strand:α-helix and Ω-loop of VGLL2 connected by the linker from Vg)
- Kd [4]: 4.3 nM

Molecule: VGLL1 27-51 (from UniProt Q99990)
- Kd [5]: 160 nM

B1: Vg^288–337 (peptide, UniProt Q26366 288-337, looked up)
peptide: Ac-CVVFTNYSGDTASQVDEHFSRALNYNNKDSKESSSPMSNRNFPPSFWNSN-NH2
notes: source: synthetic peptide, bought: Biosynthan
- Kd [4]: 3.1 nM
- Kd [6]: 1.6 nM
- Kd [7]: 4.1 nM
- Kd [8]: < 2 nM

B2: Vg^263–382 (domain or fragment, Drosophila melanogaster, UniProt Q26366 263-382, looked up)
chain: ETPMGSGGGGLAGSGQGQAQYLSASCVVFTNYSGDTASQVDEHFSRALNYNNKDSKESSSPMSNRNFPPSFWNSNYVHPIPAPTHHQVSDLYGTATDTGYATDPWVPHAAHYGSYAHAAH
notes: Vestigial (Vg), Drosophila melanogaster, UniProt Q26366, amino acids 263–382; also called Vestigial 263–382; source: E. coli (BL21(DE3) and NiCo21(DE3) are both named), purified (HisTrap, HRV 3C cleavage, Superdex 75); not shown: His-tag, N-terminal, cleaved; strep-tagII, N-terminal, cleaved; rubredoxin, N-terminal, cleaved
- Kd [9]: 5.5 nM
- Kd [10]: 24 nM
- Kd [6]: 0.38 nM
- Kd [8]: < 2 nM

B3: VGLL2^85–149 (peptide)
peptide: Ac-CVLFTYFQGDISSVVDEHFSRALSQPSSYSPSCTSSKAPRSSGPWRDCSFPMSQRSFPASFWNSA-NH2
- IC50 [3]: 6.3 nM
- Kd [4]: 34 nM

B4: Vg^288–311 (peptide, UniProt Q26366 288-311, looked up)
peptide: Ac-CVVFTNYSGDTASQVDEHFSRALN-NH2
notes: Vestigial (Vg), Drosophila melanogaster, UniProt Q26366, residues 288–311 (TONDU domain); also called TONDU domain of Vg; β-strand:α-helix region of Vg; source: synthetic peptide, bought: Biosynthan
- Kd [8]: 291 nM

B7: Yki^31–79 (peptide, UniProt Q45VV3 31-79, looked up)
peptide: Ac-NNLVVRVNQDTDDNLQALFDSVLNPGDAKRPLQLPLRMRKLPNSFFTPP-NH2
notes: Yorkie (Yki), Drosophila melanogaster, UniProt Q45VV3, residues 31–79; only Yki 30–146 and Vg 263–382 are described as recombinant; source: synthetic peptide, bought: Biosynthan
- Kd [8]: 23 nM

The next lines start with the values.

- IC50 [3]: 340 nM
- Kd [4]: 590 nM
Molecule: Ac-CVLFTYFQGDISSVVDEHFSRALS-NH2 [VGLL2^85–108]

- IC50 [3]: 133000 nM
Molecule: Ac-PMSQRSFPASFWNSA-NH2 [VGLL2^135–149]

- Kd [8]: 69 nM
B5: Yki^41–79 (peptide, UniProt Q45VV3 41-79, looked up)
peptide: Ac-TDDNLQALFDSVLNPGDAKRPLQLPLRMRKLPNSFFTPP-NH2
notes: Yorkie (Yki), Drosophila melanogaster, UniProt Q45VV3, residues 41–79 (lacks the putative β-strand); source: synthetic peptide, bought: Biosynthan

- Kd [11]: 5000 nM
- Kd [12]: 13000 nM
- Kd [6]: 13 nM
- Kd [8]: 13 nM
B6: Yki^30–146 (domain or fragment, Drosophila melanogaster, UniProt Q45VV3 30-146, looked up)
chain: SNNLVVRVNQDTDDNLQALFDSVLNPGDAKRPLQLPLRMRKLPNSFFTPPAPSHSRANSADSTYDAGSQSSINIGNKASIVQQPDGQSPIAAIPQLQIQPSPQHSRLAIHHSRARSS
notes: Yorkie (Yki), Drosophila melanogaster, UniProt Q45VV3, amino acids 30–146; also called Yorkie 30–146; source: E. coli (BL21(DE3) and NiCo21(DE3) are both named), purified (HisTrap, HRV 3C cleavage, Superdex 75); not shown: His-tag, N-terminal, cleaved; strep-tagII, N-terminal, cleaved; rubredoxin, N-terminal, cleaved

- IC50 [3]: 160000 nM
Molecule: Ac-PMSNRNFPPSFWNSN-NH2 [Vg^323–337]
